{"source": "paper PMC7647994", "about": "(2020)", "molecules": {"B1": {"name": "untagged PDIP38 (natural protein)", "chain": "SSRNRPEGKVLETVGVFEVPKQNGKYETGQLFLHSIFGYRGVVLFPWQARLYDRDVASAAPEKAENPAGHGSKEVKGKTHTYYQVLIDARDCPHISQRSQTEAVTFLANHDDSRALYAIPGLDYVSHEDILPYTSTDQVPIQHELFERFLLYDQTKAPPFVARETLRAWQEKNHPWLELSDVHRETTENIRVTVIPFYMGMREAQNSHVYWWRYCIRLENLDSDVVQLRERHWRIFSLSGTLETVRGRGVVGREPVLSKEQPAFQYSSHVSLQASSGHMWGTFRFERPDGSHFDVRIPPFSLESNKDEKTPPSGLHW"}, "B2": {"name": "His10-tagged recombinant PDIP38 (H10PDIP38) (natural protein)", "chain": "B1 chain"}, "B3": {"name": "GST-PDIP38 fusion protein (natural protein)", "chain": "B1 chain"}}, "key": {"[1]": {"target": "H10-tagged zinc-binding domain of human CLPX (human)", "test": "SEC; Superose 12; H10PDIP38, ZBD, or both together; elution profiles from quantified protein bands"}, "[2]": {"target": "H10-tagged zinc-binding domain of human CLPX (human)", "test": "pull-down; series of pull-down experiments to estimate the affinity of PDIP38 for the ZBD (Supplementary Fig. 3)"}, "[3]": {"target": "T1, H10-tagged zinc-binding domain of human CLPX (human)", "T1 chain": "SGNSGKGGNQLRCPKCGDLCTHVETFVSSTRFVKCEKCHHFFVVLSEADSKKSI"}}, "note": "Where two headings read alike, the source gives them in different places.", "data": [{"molecule": "H10-tagged zinc-binding domain of human CLPX (domain or fragment)", "values": [{"measurement": "stoichiometry N", "setting": "[1]", "result": 2}]}, {"molecule": "B1", "values": [{"measurement": "Kd", "setting": "[2]", "result": 1800, "unit": "nM"}]}, {"molecule": "B2", "values": [{"measurement": "stoichiometry N (PDIP38 per ZBD2)", "setting": "[1]", "result": 1}]}, {"molecule": "B3", "values": [{"measurement": "Kd", "setting": "[3]", "result": "~1800", "unit": "nM"}]}]}
